In the assay the target is RGD peptide. Nature of the assay: single-molecule conductance, electrodes carrying RGD peptide.

Substance αvβ3 integrin (receptor) had a single-molecule conductance peak G of 0.3 nS.

(Values after US20210231650A1.)
